Measurements as given in US20070099283A1 (published 2007).

Molecular target: T1, mature recombinant proteinase K from Tritirachium album Limber (processed, natured from pro-proteinase K) (Tritirachium album Limber, UniProt P06873 106-384)
T1 construct: Made in E. coli as pro-proteinase K inclusion bodies, natured in vitro and cleaved autocatalytically; also called processed recombinant proteinase K; native proteinase K
Assay: chromatographic methods and SDS-PAGE of natured pro-proteinase K

T1 sequence (P06873 106-384): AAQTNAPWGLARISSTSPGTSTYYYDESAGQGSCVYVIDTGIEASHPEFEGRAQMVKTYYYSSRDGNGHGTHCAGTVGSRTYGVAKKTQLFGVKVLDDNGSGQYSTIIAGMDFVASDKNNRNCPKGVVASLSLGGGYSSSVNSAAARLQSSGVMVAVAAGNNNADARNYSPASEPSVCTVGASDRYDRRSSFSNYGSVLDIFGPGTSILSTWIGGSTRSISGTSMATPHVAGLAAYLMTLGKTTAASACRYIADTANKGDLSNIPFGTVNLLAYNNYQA

B1: propeptide (prosequence) of proteinase K from Tritirachium album Limber (peptide)
chain: APAVEQRSEAAPLIEARGEMVANKYIVKFKEGSALSALDAAMEKISGKPDHVYKNVFSGFAATLDENMVRVLRAHPDVEYIEQDAVVTIN
B1: binds.
